Holding throughout (conditions): protein: recombinant; tags: His tag; label: 5'-32P; blunt
In series [1] the target is T1, rEhTBP (TATA-box binding protein) (Entamoeba histolytica, UniProt P52653 1-234).
T1 sequence: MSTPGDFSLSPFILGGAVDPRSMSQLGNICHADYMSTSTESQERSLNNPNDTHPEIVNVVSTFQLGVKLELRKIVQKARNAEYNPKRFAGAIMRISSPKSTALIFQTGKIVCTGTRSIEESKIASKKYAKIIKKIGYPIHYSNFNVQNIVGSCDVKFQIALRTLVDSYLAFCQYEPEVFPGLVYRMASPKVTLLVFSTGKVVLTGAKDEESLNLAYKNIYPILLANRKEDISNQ
Briefly: EMSA; 4 C, 1 mM MgCl2; EMSA: 12 mM Hepes pH 7.9, 60 mM KCl, 1 mM each DTT, EDTA, spermidine and MgCl2, 10% glycerol, poly(dG-dC) 1 ug/ul, 10 min at 4 C; probe 557 pM (TATA), 64 pM (GAAC) or 82 pM (GAAC-like). In general terms: In EMSA bound probe runs differently from free probe, usually more slowly.

The target in series [2] is T2, rEhTRF1 (TBP-related factor 1) (Entamoeba histolytica, UniProt A7UFC2 1-216).
T2 sequence: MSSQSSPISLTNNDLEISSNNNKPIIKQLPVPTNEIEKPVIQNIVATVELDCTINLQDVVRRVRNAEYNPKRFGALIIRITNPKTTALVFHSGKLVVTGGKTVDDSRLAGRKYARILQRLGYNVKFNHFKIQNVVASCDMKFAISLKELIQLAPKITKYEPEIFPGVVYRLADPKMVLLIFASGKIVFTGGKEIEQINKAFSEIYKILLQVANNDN
The series is described as above.

The target of series [3] is T2, rEhTRF1 (TBP-related factor 1). The experiment in a line: EMSA; specifically competed; EMSA: 12 mM Hepes pH 7.9, 60 mM KCl, 1 mM each DTT, EDTA, spermidine and MgCl2, 10% glycerol, poly(dG-dC) 1 ug/ul, 10 min at 4 C; probe 557 pM (TATA), 64 pM (GAAC) or 82 pM (GAAC-like).
Series [4] addresses T1, rEhTBP (TATA-box binding protein). The experiment in a line: EMSA; complex barely competed by specific competitor; EMSA: 12 mM Hepes pH 7.9, 60 mM KCl, 1 mM each DTT, EDTA, spermidine and MgCl2, 10% glycerol, poly(dG-dC) 1 ug/ul, 10 min at 4 C; probe 557 pM (TATA), 64 pM (GAAC) or 82 pM (GAAC-like).

B1: gAgTTAAA (6) (dsDNA)
DNA 1: AATTCTCGAGTTAAAGAGAATT
DNA 2: AATTCTCTTTAACTCGAGAATT
In the case of B1, the dissociation constant Kd was 4.73 pM in series [1] and 6.85 pM in series [2].

B2: TAgTgAAA (2) (dsDNA)
DNA 1: AATTCTCTAGTGAAAGAGAATT
DNA 2: AATTCTCTTTCACTAGAGAATT
In the case of B2, the equilibrium dissociation constant (Kd) came to 39.8 pM in series [1] and 13 pM in series [2].

B3: cAcTTAAA (9) (dsDNA)
DNA 1: AATTCTCCACTTAAAGAGAATT
DNA 2: AATTCTCTTTAAGTGGAGAATT
Regarding B3, the binding result in series [1] is listed as “no binding”. Also, the dissociation constant (Kd) in series [2] was 9.72 pM.

B4: TATTTAAA (1) (dsDNA)
DNA 1: AATTCTCTATTTAAAGAGAATT
DNA 2: AATTCTCTTTAAATAGAGAATT
B4: the Kd in series [1] is 20.7 pM; in series [2] it was 52.9 pM.

B5: TAcTcAAA (7) (dsDNA)
DNA 1: AATTCTCTACTCAAAGAGAATT
DNA 2: AATTCTCTTTGAGTAGAGAATT
Regarding B5, the figures for the Kd in series [1] and in series [2] were 2.76 pM and 29.8 pM, respectively.

B6: TATgTAAA (5) (dsDNA)
DNA 1: AATTCTCTATGTAAAGAGAATT
DNA 2: AATTCTCTTTACATAGAGAATT
As to B6, the Kd amounted to 1.69 pM in series [1] and 6.74 pM in series [2].

B7: GAAC-like box (dsDNA)
DNA 1: AGGCGAACTACAAAAGAT
DNA 2: ATCTTTTGTAGTTCGCCT
With B7, the binding result in series [3] and in series [4] was “binds” in each case.

B8: TATTaAAA (4) (dsDNA)
DNA 1: AATTCTCTATTAAAAGAGAATT
DNA 2: AATTCTCTTTTAATAGAGAATT
Take B8: the dissociation constant Kd in series [1] stood at 4.85 pM; in series [2] it was 3.98 pM.

B9: GAAC-box (wild type) (dsDNA)
DNA 1: AAGACAATGAACTAGAATG
DNA 2: CATTCTAGTTCATTGTCTT
With B9, the Kd in series [1] was 19 pM; in series [2] it was 79.4 pM.

B10: TATTggAA (3) (dsDNA)
DNA 1: AATTCTCTATTGGAAGAGAATT
DNA 2: AATTCTCTTCCAATAGAGAATT
In the case of B10, the Kd is 35.7 pM in series [1] and 13.5 pM in series [2].

B11: TATTTttt (10) (dsDNA)
DNA 1: AATTCTCTATTTTTTGAGAATT
DNA 2: AATTCTCAAAAAATAGAGAATT
Consider B11, for which the Kd in series [1] came out at 3.4 pM; in series [2], 25.4 pM.

B12: cAcTcAAA (8) (dsDNA)
DNA 1: AATTCTCCACTCAAAGAGAATT
DNA 2: AATTCTCTTTGAGTGGAGAATT
For B12, the values for the Kd in series [1] and in series [2] were 38 pM and 30.8 pM, respectively.

In general, Kd refers to a measure of binding affinity in units of concentration.

(Values after paper PMC5842622, “The Entamoeba histolytica TBP and TRF1 transcription factors are GAAC-box binding proteins, which display differential gene expression under different stress stimuli and during the interaction with ma”.)
